Key:
[1] = biological target: T1, Ang2 immobilized on a biosensor (Octet off-rate screening) (Homo sapiens (Human), UniProt O15123 19-496); assay: dissociation rate screening of optimized clones (method as in Example 3, Octet; not restated)
T1 construct: also called Ang2 antigen; not shown: It is a His tag if hAng2-his (R&D 623-AN/CF) was used, or an Fc if hAng2-Fc (PharmAbcine) was used
T1 sequence: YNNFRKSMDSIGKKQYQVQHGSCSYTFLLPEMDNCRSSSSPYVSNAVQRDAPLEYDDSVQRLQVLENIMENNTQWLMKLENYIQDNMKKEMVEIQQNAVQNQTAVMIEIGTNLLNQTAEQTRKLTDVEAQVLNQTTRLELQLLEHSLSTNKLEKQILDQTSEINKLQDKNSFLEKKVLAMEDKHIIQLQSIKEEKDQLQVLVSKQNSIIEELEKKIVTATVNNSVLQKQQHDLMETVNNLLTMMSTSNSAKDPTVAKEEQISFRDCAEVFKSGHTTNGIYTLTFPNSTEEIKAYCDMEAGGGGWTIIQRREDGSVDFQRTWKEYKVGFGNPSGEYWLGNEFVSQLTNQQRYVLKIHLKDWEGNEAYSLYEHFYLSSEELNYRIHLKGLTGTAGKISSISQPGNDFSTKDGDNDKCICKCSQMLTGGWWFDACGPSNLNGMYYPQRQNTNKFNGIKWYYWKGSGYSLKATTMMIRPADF

[2] = biological target: Ang2 immobilized on a biosensor (Octet off-rate screening) (Homo sapiens (Human)) (UniProt O15123); assay: as above
[3] = biological target: T2, His-tagged human Ang1 (R&D systems, 923-AN/CF) (human, UniProt Q15389 20-498, limits assumed); assay: phage ELISA, antigen coated at 1 µg/ml, anti-M13-HRP
T2 construct: Bought protein; also called hAng1-his; not shown: His tag
T2 sequence (looked up): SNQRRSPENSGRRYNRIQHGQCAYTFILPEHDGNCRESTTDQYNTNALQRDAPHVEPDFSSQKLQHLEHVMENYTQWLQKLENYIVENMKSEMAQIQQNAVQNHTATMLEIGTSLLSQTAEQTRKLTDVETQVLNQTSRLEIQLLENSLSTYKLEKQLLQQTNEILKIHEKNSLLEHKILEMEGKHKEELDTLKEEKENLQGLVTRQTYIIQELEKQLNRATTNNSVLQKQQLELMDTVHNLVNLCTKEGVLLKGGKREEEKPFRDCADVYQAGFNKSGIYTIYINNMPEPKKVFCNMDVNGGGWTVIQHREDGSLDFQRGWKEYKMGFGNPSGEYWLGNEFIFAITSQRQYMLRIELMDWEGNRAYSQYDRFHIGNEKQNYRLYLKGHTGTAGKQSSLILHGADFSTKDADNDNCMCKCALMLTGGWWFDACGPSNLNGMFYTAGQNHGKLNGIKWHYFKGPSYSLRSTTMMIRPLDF

B1: No. O12 optimized clone (screening of scFv phage library of No. 8 CDR3 variants) (scFv, V domains shown)
VH: QVQLVESGGGLVKPGGSLRLSCAASGFTFSSYSMNWVRQAPGKGLEWVSSISASDGATYYADSVRGRFTISRDNSRSTLYLQMNSLRAEDTAVYYCAKSLASYSGPMGGMDVWGQGTTVTVSS
VL: DIQMTQSPSSLSASVGDRVTITCRASRDISNYLAWYQQKPGKAPKSLIYGASNLQSGVSSQFSGSGSGTDFTLTINSLQPEDSATYYCQQYYSYPLTFGGGTKVDIKR
B1 was tested, and the koff [1] was 1.7e-05 s⁻¹.

B2: No. O4 optimized clone (screening of scFv phage library of No. 8 CDR3 variants) (scFv, part only; not given: scFv linker, part only)
scFv, part: QVQLVESGGGLVKPGGSLRLSCAASGFTFSSYSMNWVRQAPGKGLEWVSSISASDGATYYADSVRGRFTISRDNSRSTLYLQMNSLRAEDTAVYYCAKTLAGYSGPMGGMDVWGQGTTVTVSSDIQMTQSPSSLSASVGDRVTITCRASRDISNYLAWYQQKPGKAPKSLIYGASNLQSGVSSQFSGSGSGTDFTLTINSLQPEDSATYYCQQYYSYPLTFGGGTKVDIKR
For B2, the koff [2] was 9.01e-05 s⁻¹.

B3: No. 3 monoclonal scFv phage (scFv)
chain: QMQLVQSGGGLVQPGRSLKLSCAASGFSFDDYAMHWVRQAPGKGLEWVATIKDDGSQTYYVDSVKGRFTISRDNAKSSLFLQMNSLRAEDTAVYYCTTEGLMNGLHFDMWGQGTMVTVSSLVLTQPPSVSGAPGQGVTISCTGSSSNIGAGYDVHWYQQFPGTAPKLLISGNNNRPSGLPDRFSGSKSGTSASLAITGLQAEDEADYYCQSYDSRLGVVFGGGTKLTVLG
B3 gave an OD [3] of 0.025 OD.
